In this series the test system is FLP recombinase (Saccharomyces cerevisiae (2-micron plasmid)). In words: cell_activity.

Among the data in US6140129 are activity (Tet^R colonies per trial) and activity (colonies per plate) values, retold here.

Regarding E. coli chromosome without FRT, under “no chromosomal FRT, 4 experiments”, the activity (Tet^R colonies per trial) is 0. In addition, the activity (colonies per plate) (non-target strain with IPTG, 0 without) amounted to 1.
For minimal wild-type FRT (from pJFS36), the activity (colonies per plate) (lambda FRT36 integration at lacZ-FRT with IPTG (39 without), lacY-FRT 206 with and 247 without) stood at 139.
